Experimental data reported in publication PMC13038214, “TNFSF13 insufficiency disrupts human colonic epithelial cell growth and associated B cell dynamics” (The Journal of Clinical Investigation, 2026).

T1: FAS ligand (FASL) used as analyte in SPR (human, UniProt P48023 103-281)
T1 construct: FAS ligand (FASL), the protein flowed over immobilised FAS in SPR as positive control; also called rFASL; recombinant human FAS ligand
T1 sequence (looked up): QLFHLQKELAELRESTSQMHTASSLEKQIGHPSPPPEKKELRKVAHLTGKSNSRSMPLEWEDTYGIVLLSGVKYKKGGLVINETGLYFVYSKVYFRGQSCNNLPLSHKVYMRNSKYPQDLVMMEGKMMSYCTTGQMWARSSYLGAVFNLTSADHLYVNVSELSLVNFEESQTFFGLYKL

B1: FAS immobilised for SPR (receptor, human, UniProt P25445 26-173, looked up)
chain: QVTDINSKGLELRKTVTTVETQNLEGLHHDGQFCHKPCPPGERKARDCTVNGDEPDCVPCQEGKEYTDKAHFSSKCRRCRLCDEGHGLEVEINCTRTQNTKCRCKPNFFCNSTVCEHCDPCTKCEHGIIKECTLTSNTKCKEEGSRSN
notes: FAS receptor, the protein immobilised in SPR; also called FAS receptor

Experiments:
[1] = molecular target: B1; assay: SPR; FAS immobilised; TNFSF13 or FASL at various concentrations; sensorgrams fitted to a 1:1 kinetic binding model; n = 3 independent experiments; settings: both partners purified
[2] = molecular target: T1, FAS ligand (FASL) used as analyte in SPR; assay: as above; settings: both partners purified

Binder	Kd [1]	Kd [2]
TNFSF13 used as analyte in SPR (ligand, human, UniProt O75888 105-250, looked up, TNFSF13 (APRIL), the protein flowed over immobilised FAS in SPR; also called TNSF13; APRIL) AVLTQKQKKQHSVLHLVPINATSKDDSDVTEVMWQPALRRGRGLQAQGYGVRIQDAGVYLLYSQVLFQDVTFTMGQVVSREGQGRQETLFRCIRSMPSHPDRAYNSCYSAGVFHLHQGDILSVIIPRARAKLNLSPHGTFLGFVKL	60 nM	
B1		4.09 nM
